Patent US9297028B2, “Fermentive production of four carbon alcohols” (Butamax Advanced Biofuels LLC, priority 2005, dated 2016)
One block for each substance: values may come before it.

How the values were obtained:
[1] = Hydroxybutyryl-CoA dehydrogenase activity (rate of oxidation of NADH, absorbance at 340 nm); format: biochemical
Method: Hydroxybutyryl-CoA dehydrogenase activity was determined by measuring the rate of oxidation of NADH as measured by the decrease in absorbance at 340 nm. A standard assay mixture contained 50 mM MOPS, pH 7.0, 1 mM DTT and 0.2 mM NADH. The cocktail was equilibrated for 5 min at 37° C. and then the cell free extract was added. Reactions were initiated by addition of the substrate, 0.1 mM acetoacetyl-CoA. In one typical assay, the specific activity of the BHBD protein in the induced culture was determined to be 57.4 μmol mg^−1 min^−1 compared to 0.885 μmol mg^−1 min^−1 in the uninduced culture.
(§1) For enzyme activity analysis, a single colony of each strain was streaked onto a fresh plate containing SD minimal drop out medium and incubated at 30° C. for 2 days. The cells on this plate were used to inoculate 20 mL of SD drop out medium and in a 125 mL shake flask and grown overnight at 30° C., with shaking at 250 rpm. The optical density (OD600) of the overnight culture was measured, and the culture was diluted to an OD600=0.1 in 250 mL of the same medium in a 1.0 L shake flask, and grown at 30° C. with shaking at 250 rpm to an OD600 of between 0.8 to 1.0. The cells were then harvested by centrifugation at 2000×g for 10 min, and resuspended in 20 mL of 50 mM Tris-HCl buffer, pH 8.5. Enzyme assays were performed as described above.

[2] = Acetoacetyl-CoA thiolase activity in cell free extracts (decrease in absorbance at 303 nm); format: biochemical
Method: Acetoacetyl-CoA thiolase activity in the cell free extracts was measured as degradation of a Mg^2+-acetoacetyl-CoA complex by monitoring the decrease in absorbance at 303 nm. Standard assay conditions were 100 mM Tris-HCl pH 8.0, 1 mM DTT (dithiothreitol) and 10 mM MgCl2. The cocktail was equilibrated for 5 min at 37° C.; then the cell-free extract was added. The reaction was initiated with the addition of 0.05 mM acetoacetyl-CoA plus 0.2 mM CoA. Protein concentration was measured by either the Bradford method or by the Bicinchoninic Kit (Sigma, catalog no. BCA-1). Bovine serum albumin (Bio-Rad, Hercules, Calif.) was used as the standard in both cases. In one typical assay, the specific activity of the ThlA protein in the induced culture was determined to be 16.0 μmol mg^−1 min^−1 compared to 0.27 μmol mg^−1 min^−1 in the uninduced culture.
as §1

[3] = yeast strain DPD5200 (BY4743/pNY103), standard conditions
[4] = yeast strain DPD5206 (BY4741/pNY102)

Hbd activity ([1]; yeast strain BY4741 (pNY6), in words): good
Substance: BHBD: 3-hydroxybutyryl-CoA dehydrogenase encoded by hbd from C. acetobutylicum ATCC 824, SEQ ID NO:6
Hbd activity ([1]; yeast BY4741 containing pNY10, hbd under GPD promoter): 1.8 U/mg | Hbd enzyme activity [1, 3]: 0.21 U/mg | Hbd activity [1, 4]: 0.76 U/mg | Hbd activity ([1]; yeast, GALL promoter controlled hbd): 0.40 U/mg

Substance: ThlA: acetyl-CoA acetyltransferase encoded by thlA from C. acetobutylicum ATCC 824, SEQ ID NO:2
ThlA activity ([2]; yeast BY4741 containing pNY10 (thlA with one base deletion, truncated protein), in words): no ThlA activity | ThlA activity ([2]; yeast BY4741 transformed with pNY12 (FBA1 promoter)): 1.66 U/mg | ThlA enzyme activity [2, 3]: 0.49 U/mg | ThlA activity [2, 4]: 1.24 U/mg
